Measurements from publication PMC8476121, “Structural insights into the activation of human calcium-sensing receptor” (eLife, 2021).

Tests used:
[1] = molecular target: T1, CaSR ECD (extracellular domain of human calcium-sensing receptor) (Homo sapiens, UniProt P41180); assay: SPR; Biacore T200; CaSR ECD coupled to the chip by amino-carboxyl coupling; nanobody flowed at a series of concentrations (30 ul/min, association 90 s, dissociation 220 s); 25 C; 20 mM HEPES pH 7.4, 150 mM NaCl, 0.05% Tween 20; conditions: both partners purified
T1 construct: human calcium-sensing receptor (CaSR), extracellular domain (VFT domain and cysteine rich domain); crystal structures of CaSR ECD (PDB 5K5T, 5K5S; Geng et al., 2016) are cited but not tied to this construct
T1 sequence (P41180 whole entry, looked up, the tested form may be a part): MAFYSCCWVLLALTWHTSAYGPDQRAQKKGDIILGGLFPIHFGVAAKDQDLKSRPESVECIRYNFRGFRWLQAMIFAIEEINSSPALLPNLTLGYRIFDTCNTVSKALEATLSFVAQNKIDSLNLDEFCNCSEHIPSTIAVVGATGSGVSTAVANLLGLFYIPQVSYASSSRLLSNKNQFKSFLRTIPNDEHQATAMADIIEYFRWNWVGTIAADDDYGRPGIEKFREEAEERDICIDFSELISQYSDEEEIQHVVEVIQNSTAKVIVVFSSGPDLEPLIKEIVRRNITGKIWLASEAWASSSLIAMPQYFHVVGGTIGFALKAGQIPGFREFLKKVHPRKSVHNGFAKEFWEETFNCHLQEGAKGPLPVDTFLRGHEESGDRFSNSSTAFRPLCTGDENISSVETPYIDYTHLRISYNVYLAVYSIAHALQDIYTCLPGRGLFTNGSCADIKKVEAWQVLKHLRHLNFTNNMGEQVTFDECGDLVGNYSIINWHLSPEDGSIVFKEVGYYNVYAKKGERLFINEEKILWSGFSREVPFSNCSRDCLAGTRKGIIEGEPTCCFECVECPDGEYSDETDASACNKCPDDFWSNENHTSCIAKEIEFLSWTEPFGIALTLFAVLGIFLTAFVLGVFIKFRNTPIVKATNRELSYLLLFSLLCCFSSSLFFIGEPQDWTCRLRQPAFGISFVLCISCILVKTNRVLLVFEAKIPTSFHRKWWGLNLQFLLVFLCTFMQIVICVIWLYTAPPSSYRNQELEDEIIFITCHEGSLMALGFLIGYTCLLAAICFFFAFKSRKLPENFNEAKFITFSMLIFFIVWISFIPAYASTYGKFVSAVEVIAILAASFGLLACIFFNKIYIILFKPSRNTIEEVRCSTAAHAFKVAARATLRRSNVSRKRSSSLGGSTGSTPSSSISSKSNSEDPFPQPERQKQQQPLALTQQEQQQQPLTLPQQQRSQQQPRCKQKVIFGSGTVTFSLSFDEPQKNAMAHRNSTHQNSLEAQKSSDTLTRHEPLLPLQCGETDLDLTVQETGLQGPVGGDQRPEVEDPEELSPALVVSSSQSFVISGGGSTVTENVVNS

[2] = molecular target: the molecule itself; assay: cryo-EM structure; inactive state: CaSR in GDN/CHS micelles with NPS-2143 (NAM), 1 mM CaCl2 and a 1.2 molar excess of NB-2D11

Binder	Kd [1] [nM]	binding result [2]
NB-2D11 (camel nanobody) (VHH, Cloned in pMECS with a PelB signal peptide; HA tag followed by 6x histidine tag at the C-terminus; Isolated from a phage display library of camels immunised with human CaSR; also called NB-D211; source: E. coli TOP10F' periplasm, purified (Ni-NTA, Superdex 75)) VHH: QVQLQESGGGSVQAGGSLRLSCAASGFPISTYDMGWFRQAPGKEREGVVGITDSFSIKYEDSVKGRFTISRDNAKNALYLQMNSLKPEDTGMYYCAAGDARWSLLLRAEQYNYWGQGTQVTVSS	0.24	
Human calcium-sensing receptor CaSR (1-870) with C-terminal Flag tag (receptor, UniProt P41180-1 20-870, looked up, signal peptide in the construct; human calcium-sensing receptor (CaSR), residues 1-870, cDNA NM_000388.4; Flag printed as DYKDDDD; Cloned into a modified pEG BacMam vector; also called full-length CaSR; hCaSR; source: HEK293 GnTI- cells infected with baculovirus (BacMam), purified (anti-Flag M2, Mono Q, Superose 6) in GDN/CHS) YGPDQRAQKKGDIILGGLFPIHFGVAAKDQDLKSRPESVECIRYNFRGFRWLQAMIFAIEEINSSPALLPNLTLGYRIFDTCNTVSKALEATLSFVAQNKIDSLNLDEFCNCSEHIPSTIAVVGATGSGVSTAVANLLGLFYIPQVSYASSSRLLSNKNQFKSFLRTIPNDEHQATAMADIIEYFRWNWVGTIAADDDYGRPGIEKFREEAEERDICIDFSELISQYSDEEEIQHVVEVIQNSTAKVIVVFSSGPDLEPLIKEIVRRNITGKIWLASEAWASSSLIAMPQYFHVVGGTIGFALKAGQIPGFREFLKKVHPRKSVHNGFAKEFWEETFNCHLQEGAKGPLPVDTFLRGHEESGDRFSNSSTAFRPLCTGDENISSVETPYIDYTHLRISYNVYLAVYSIAHALQDIYTCLPGRGLFTNGSCADIKKVEAWQVLKHLRHLNFTNNMGEQVTFDECGDLVGNYSIINWHLSPEDGSIVFKEVGYYNVYAKKGERLFINEEKILWSGFSREVPFSNCSRDCLAGTRKGIIEGEPTCCFECVECPDGEYSDETDASACNKCPDDFWSNENHTSCIAKEIEFLSWTEPFGIALTLFAVLGIFLTAFVLGVFIKFRNTPIVKATNRELSYLLLFSLLCCFSSSLFFIGEPQDWTCRLRQPAFGISFVLCISCILVKTNRVLLVFEAKIPTSFHRKWWGLNLQFLLVFLCTFMQIVICVIWLYTAPPSSYRNQELEDEIIFITCHEGSLMALGFLIGYTCLLAAICFFFAFKSRKLPENFNEAKFITFSMLIFFIVWISFIPAYASTYGKFVSAVEVIAILAASFGLLACIFFNKIYIILFKPSRNTIE		binds
